From the supplement of paper PMC10899765 come the findings set out here.

Common to all, as to settings: 20 nM; 72 h
Data set [1] deals with MCF10A. As to the kind of experiment: percent viability (nuclei count relative to siNT); higher = more viable cells. The protocol: (§1)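 After 72 h, cells were fixed and stained with Hoechst and anti-fibrillarin, and nucleoli per nucleus were counted with CellProfiler. Values are plate-adjusted percent effect for the one-nucleolus and 5+ nucleoli phenotypes, normalised to siNT (0%) and to the positive controls siNOL11 or siKIF11 (100%), as the mean of biological triplicates. Percent viability is the nuclei count relative to siNT.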

Data set [2] has as its system MCF10A. Description: 5+ nucleoli phenotype percent effect (relative to siNT 0% and siKIF11 100%); higher = more cells with five or more nucleoli. The protocol:
as §1

The test system of data set [3] is MCF10A. Description: one-nucleolus phenotype percent effect (relative to siNT 0% and siNOL11 100%); higher = more cells with one nucleolus (ribosome biogenesis inhibition). The protocol:
as §1

Regarding UACAGUACUGUGAUAACUGAA [hsa-miR-101-3p], in the data set on MCF10A [1], the percent viability was found to be 86%. Also, the “5+ nucleoli phenotype percent effect” value in the data set with MCF10A [2] is -26.5%. For the same sequence, in the data set on MCF10A [3], the “one-nucleolus phenotype percent effect” value was determined as 11.6%.

As for “AAAAGUUAUUGCGGUUUUGGCU [hsa-miR-548at-5p]”, in the data set on MCF10A [1], the percent viability was determined as 54.1%. The “5+ nucleoli phenotype percent effect” value in the data set on MCF10A [2] worked out at 15%. Besides, the “one-nucleolus phenotype percent effect” value in the data set on MCF10A [3] is -14.7%.

Turning to “UUAGCUUAAGGAGUACCAGAUC [hsa-miR-5579-3p]”, in the data set with MCF10A [1], the percent viability is 65.6%. In addition, in the data set with MCF10A [2], the “5+ nucleoli phenotype percent effect” value was determined as 7.97%. Also, in the data set with MCF10A [3], the “one-nucleolus phenotype percent effect” value is -7.52%.

Regarding GUCCGCUCGGCGGUGGCCCA [hsa-miR-572], the percent viability with MCF10A [1] came out at 96%. Also, in the data set with MCF10A [2], the “5+ nucleoli phenotype percent effect” value is -5.13%. Also, in the data set with MCF10A [3], the “one-nucleolus phenotype percent effect” value is -16.2%.

In the case of “AAAGAUAGACAAUUGGCUAAAU [hsa-miR-4662a-3p]”, the percent viability in the data set with MCF10A [1] worked out at 83.7%. Moreover, in the data set with MCF10A [2], the “5+ nucleoli phenotype percent effect” value stood at 4.11%. The “one-nucleolus phenotype percent effect” value with MCF10A [3] is -23.7%.

Turning to “UGGUCGACCAGUUGGAAAGUAAU [hsa-miR-412-5p]”, the percent viability in the data set on MCF10A [1] amounted to 46.8%. For the same sequence, the “5+ nucleoli phenotype percent effect” value in the data set on MCF10A [2] is -1.85%. The “one-nucleolus phenotype percent effect” value in the data set on MCF10A [3] turned out to be 13.6%.

In the case of “AGACACAUUUGGAGAGGGACCC [hsa-miR-642b-3p]”, the percent viability with MCF10A [1] was 71.1%. The “5+ nucleoli phenotype percent effect” value in the data set on MCF10A [2] was -6.68%. The “one-nucleolus phenotype percent effect” value in the data set on MCF10A [3] was -3.17%.

For “UAUGUAGUAGUCAAAGGCAUUU [hsa-miR-7852-3p]”, in the data set with MCF10A [1], the percent viability worked out at 81.4%. In addition, the “5+ nucleoli phenotype percent effect” value in the data set with MCF10A [2] is -8.45%. Further, in the data set on MCF10A [3], the “one-nucleolus phenotype percent effect” value is -3.81%.

With “UGAAGCUCUAAGGUUCCGCCUGC [hsa-miR-3928-5p]”, the percent viability with MCF10A [1] is 23.8%. Moreover, the “5+ nucleoli phenotype percent effect” value in the data set on MCF10A [2] is -19.2%. Besides, the “one-nucleolus phenotype percent effect” value in the data set with MCF10A [3] was found to be 20.8%.

For the sequence UUGCAUGUCAGAUUGUAAUUCCC [hsa-miR-4666b], the percent viability in the data set on MCF10A [1] was 64.4%. In addition, in the data set on MCF10A [2], the “5+ nucleoli phenotype percent effect” value was -10.4%. In addition, the “one-nucleolus phenotype percent effect” value in the data set on MCF10A [3] was found to be 5.21%.

As for “UGGGUGUAGGCUGGAGCUGAGG [hsa-miR-6772-5p]”, the percent viability with MCF10A [1] came to 17%. Also, in the data set on MCF10A [2], the “5+ nucleoli phenotype percent effect” value was -8.54%. The “one-nucleolus phenotype percent effect” value with MCF10A [3] was found to be 23.4%.

With CACGCUCAUGCACACACCCACA [hsa-miR-574-3p], the percent viability in the data set on MCF10A [1] is 82.7%. Besides, in the data set on MCF10A [2], the “5+ nucleoli phenotype percent effect” value is -3.95%. In addition, the “one-nucleolus phenotype percent effect” value with MCF10A [3] was -8.15%.

In the case of CAGGGCCUCACUGUAUCGCCCA [hsa-miR-4512], in the data set with MCF10A [1], the percent viability came out at 20%. Further, the “5+ nucleoli phenotype percent effect” value with MCF10A [2] worked out at 0.0146%. Moreover, the “one-nucleolus phenotype percent effect” value in the data set with MCF10A [3] turned out to be 18.5%.

Turning to AUGAUCCAGGAACCUGCCUCU [hsa-miR-640], the percent viability in the data set on MCF10A [1] turned out to be 32.2%. In addition, in the data set on MCF10A [2], the “5+ nucleoli phenotype percent effect” value is -28.9%. Further, the “one-nucleolus phenotype percent effect” value with MCF10A [3] amounted to 28.8%.

Consider “AUAAUACAACCUGCUAAGUGCU [hsa-miR-374c-5p]”, for which the percent viability in the data set on MCF10A [1] is 45.3%. In addition, the “5+ nucleoli phenotype percent effect” value in the data set with MCF10A [2] was -36.9%. For the same sequence, the “one-nucleolus phenotype percent effect” value with MCF10A [3] came out at 26.4%.

Regarding AACUGGAUCAAUUAUAGGAGUG [hsa-miR-1243], in the data set on MCF10A [1], the percent viability was 174%. Moreover, the “5+ nucleoli phenotype percent effect” value in the data set with MCF10A [2] was determined as 53.3%. The “one-nucleolus phenotype percent effect” value in the data set on MCF10A [3] is -29.3%.

For the sequence “UUCGCCACUUCCCUCCCUGCAG [hsa-miR-6788-3p]”, the percent viability in the data set with MCF10A [1] came to 89.7%. In the data set with MCF10A [2], the “5+ nucleoli phenotype percent effect” value stood at 18%. Besides, the “one-nucleolus phenotype percent effect” value in the data set with MCF10A [3] is -13.9%.

For AAAAGUACUUGCGGAUUUUGCU [hsa-miR-548k], the percent viability in the data set on MCF10A [1] is 75.4%. Further, the “5+ nucleoli phenotype percent effect” value in the data set with MCF10A [2] is 36.4%. Also, the “one-nucleolus phenotype percent effect” value in the data set with MCF10A [3] was -15.1%.

For UGGUGGUUUACAAAGUAAUUCA [hsa-miR-876-3p], the percent viability with MCF10A [1] amounted to 10.9%. Also, in the data set with MCF10A [2], the “5+ nucleoli phenotype percent effect” value is -33.4%. Moreover, in the data set with MCF10A [3], the “one-nucleolus phenotype percent effect” value is 57.7%.

Turning to AACCAGCACCCCAACUUUGGAC [hsa-miR-634], the percent viability with MCF10A [1] stood at 4.33%. Further, the “5+ nucleoli phenotype percent effect” value with MCF10A [2] is -57.2%. The “one-nucleolus phenotype percent effect” value in the data set on MCF10A [3] is -35.9%.

Turning to UCUUCAACCUCAGGACUUGCA [hsa-miR-676-5p], the percent viability in the data set on MCF10A [1] was determined as 56%. In the data set with MCF10A [2], the “5+ nucleoli phenotype percent effect” value stood at 37.9%. Also, in the data set on MCF10A [3], the “one-nucleolus phenotype percent effect” value was -20.5%.

For “UAGCAGCGGGAACAGUUCUGCAG [hsa-miR-503-5p]”, the percent viability with MCF10A [1] was determined as 29.1%. Moreover, the “5+ nucleoli phenotype percent effect” value in the data set with MCF10A [2] was -16.1%. For the same sequence, the “one-nucleolus phenotype percent effect” value in the data set with MCF10A [3] was 14.4%.

As to “CAGCCCUCCUCCCGCACCCAAA [hsa-miR-4687-5p]”, in the data set on MCF10A [1], the percent viability is 80.6%. Besides, the “5+ nucleoli phenotype percent effect” value in the data set on MCF10A [2] is -6.45%. Also, in the data set on MCF10A [3], the “one-nucleolus phenotype percent effect” value was -10.4%.

With “UCUCACUGUAGCCUCGAACCCC [hsa-miR-1304-3p]”, the percent viability in the data set with MCF10A [1] amounted to 44.7%. Also, the “5+ nucleoli phenotype percent effect” value in the data set with MCF10A [2] was found to be 22.9%. The “one-nucleolus phenotype percent effect” value in the data set on MCF10A [3] is -27.3%.

As to “AGGCAGUGUAUUGUUAGCUGGC [hsa-miR-449b-5p]”, the percent viability in the data set with MCF10A [1] was 128%. For the same sequence, the “5+ nucleoli phenotype percent effect” value in the data set on MCF10A [2] worked out at 36.8%. Further, the “one-nucleolus phenotype percent effect” value with MCF10A [3] is -25.7%.

With “UGAGGGACAGAUGCCAGAAGCA [hsa-miR-3126-5p]”, the percent viability with MCF10A [1] was determined as 16.2%. For the same sequence, in the data set with MCF10A [2], the “5+ nucleoli phenotype percent effect” value was -33.3%. Moreover, in the data set on MCF10A [3], the “one-nucleolus phenotype percent effect” value stood at 40%.

For GUAAGCAGGGGCUCUGGGUGA [hsa-miR-6792-5p], in the data set with MCF10A [1], the percent viability amounted to 30.2%. Besides, in the data set with MCF10A [2], the “5+ nucleoli phenotype percent effect” value was -36.8%. Further, in the data set on MCF10A [3], the “one-nucleolus phenotype percent effect” value came to 56.4%.

Regarding “CGUCUUACCCAGCAGUGUUUGG [hsa-miR-200c-5p]”, the percent viability in the data set on MCF10A [1] came to 79%. Besides, the “5+ nucleoli phenotype percent effect” value with MCF10A [2] was -1.15%. The “one-nucleolus phenotype percent effect” value in the data set with MCF10A [3] is -5.6%.

With “AAAAGUAAUUGCGGUUUUUGCC [hsa-miR-548o-5p]”, the percent viability in the data set with MCF10A [1] worked out at 119%. Moreover, in the data set on MCF10A [2], the “5+ nucleoli phenotype percent effect” value worked out at 43.1%. Besides, the “one-nucleolus phenotype percent effect” value in the data set with MCF10A [3] was -26.8%.

Consider “ACUCAAAAGAUGGCGGCACUUU [hsa-miR-371b-5p]”, for which the percent viability in the data set with MCF10A [1] was 96.1%. The “5+ nucleoli phenotype percent effect” value in the data set on MCF10A [2] amounted to 19.5%. Also, in the data set with MCF10A [3], the “one-nucleolus phenotype percent effect” value is -20.5%.

Turning to “CCUGGGCAGCGUGUGGCUGAAGG [hsa-miR-3187-5p]”, the percent viability in the data set on MCF10A [1] came to 66.4%. Moreover, the “5+ nucleoli phenotype percent effect” value in the data set with MCF10A [2] was 41.1%. For the same sequence, the “one-nucleolus phenotype percent effect” value in the data set on MCF10A [3] was -3.44%.

For AAUGUAAACAGGCUUUUUGCU [hsa-miR-4495], in the data set on MCF10A [1], the percent viability was 68.8%. In the data set with MCF10A [2], the “5+ nucleoli phenotype percent effect” value was determined as 29.4%. The “one-nucleolus phenotype percent effect” value in the data set on MCF10A [3] was 2.68%.

Turning to UCCUGUACUGAGCUGCCCCGAG [hsa-miR-486-5p], the percent viability in the data set on MCF10A [1] is 41.3%. For the same sequence, in the data set with MCF10A [2], the “5+ nucleoli phenotype percent effect” value stood at 1.79%. Besides, the “one-nucleolus phenotype percent effect” value in the data set with MCF10A [3] was found to be 4.53%.

Turning to UGUGACCCUAGAAUAAUUAC [hsa-miR-7973], in the data set with MCF10A [1], the percent viability came out at 29.4%. Also, in the data set on MCF10A [2], the “5+ nucleoli phenotype percent effect” value is -4.82%. For the same sequence, the “one-nucleolus phenotype percent effect” value in the data set with MCF10A [3] is -2.95%.

With AGAUCGACCGUGUUAUAUUCGC [hsa-miR-369-5p], the percent viability in the data set on MCF10A [1] was found to be 53%. Also, in the data set on MCF10A [2], the “5+ nucleoli phenotype percent effect” value worked out at 3.93%. Also, the “one-nucleolus phenotype percent effect” value with MCF10A [3] is -0.708%.

Turning to AAUGGCUGUCCGUAGUAUGGUC [hsa-miR-889-5p], the percent viability in the data set on MCF10A [1] came out at 24.5%. Further, in the data set on MCF10A [2], the “5+ nucleoli phenotype percent effect” value is -28.6%. In addition, the “one-nucleolus phenotype percent effect” value with MCF10A [3] was determined as 43.3%.
